Publication PMC12307654, “Time-dependent catalytic activity in aging condensates” (Nature Communications, 2025)

Substrate: C=C(O[C@H]1C=C[C@H](C(=O)CCC(=O)O)[C@@H](C(=O)O)[C@@H]1O)C(=O)O
Test: purified protein
Format: biochemical, Escherichia coli
Settings: free enzyme without scaffold, 20 mM Tris, 150 mM NaCl, 0.5 mM AEBSF, 0.1 mM DTT, 0.1% Triton X-100, 10% glycerol, pH 7.4, room temperature

B1: MenH-RIDD (Escherichia coli K-12) (protein)
chain: MILHAQAKHGKPGLPWLVFLHGFSGDCHEWQEVGEAFADYSRLYVDLPGHGGSAAISVDGFDDVTDLLRKTLVSYNILDFWLVGYSLGGRVAMMAACQGLAGLCGVIVEGGHPGLQNAEQRAERQRSDRQWVQRFLTEPLTAVFADWYQQPVFASLNDDQRRELVALRSNNNGATLAAMLEATSLAVQPDLRANLSARTFAFYYLCGERDSKFRALAAELAADCHVIPRAGHNAHRENPAGVIASLAQILRF
notes: full-length MenH fused to the RIDD docking peptide tag; gene from laboratory stock; free enzyme without FIB1-GFP-RIAD scaffold
  Km: 12.75 ± 1.68 µM
  kcat: 1.536 ± 0.0972 s⁻¹
